The values that follow come from patent publication US20040176285A1, “Tip39 polypeptides” (priority 2001, published 2004).

What is called IC50 is the concentration needed to halve the response being measured. High values mean weaker potency in that assay, low ones greater potency in that assay.

“Also recorded” adds a separate entry of the source. Where a SMILES comes first, the peptide text is derived from it. Where no end group is shown, it is not given here.

Experiment [1] addresses T1, PTH1R (Homo sapiens, UniProt Q03431).
T1 sequence (Q03431 27-593): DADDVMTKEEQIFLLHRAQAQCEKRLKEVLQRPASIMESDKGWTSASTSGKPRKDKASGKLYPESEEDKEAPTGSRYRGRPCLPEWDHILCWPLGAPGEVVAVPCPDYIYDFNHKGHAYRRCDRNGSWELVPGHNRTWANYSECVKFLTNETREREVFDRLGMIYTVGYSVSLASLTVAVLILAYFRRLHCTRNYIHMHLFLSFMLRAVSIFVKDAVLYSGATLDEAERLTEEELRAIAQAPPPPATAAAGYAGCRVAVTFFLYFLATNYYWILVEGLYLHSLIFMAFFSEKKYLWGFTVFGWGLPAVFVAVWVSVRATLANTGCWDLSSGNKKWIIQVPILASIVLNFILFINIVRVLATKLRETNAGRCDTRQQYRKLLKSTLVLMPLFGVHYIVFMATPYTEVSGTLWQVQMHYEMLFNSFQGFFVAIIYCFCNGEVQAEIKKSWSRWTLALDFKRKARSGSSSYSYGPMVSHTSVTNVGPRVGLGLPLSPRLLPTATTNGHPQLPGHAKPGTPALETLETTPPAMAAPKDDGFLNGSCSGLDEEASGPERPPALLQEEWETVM
Kind of experiment: Radioreceptor binding assay with HKrk-B7 cells. Also on record: expressed in transfected cells. As for the experimental part:
(§1) DMEM, Trypsin/EDTA, and penicillin G/streptomycin and horse serum were from Gibco/BRL, Life Technologies, Gaithersburg, Md. LLC-PK, expressing the recombinant human PTH1R (HKrk-B7 cells) and SaOS-2 cells expressing the wild-type PTH1R endogenously were cultured in DMEM supplemented with 10% heat-inactivated fetal bovine serum, 100 U/ml penicillin, 100 μg/ml streptomycin, as previously described (Gardella, T. J., et al., J. Biol. Chem. 271:19888-19893 (1996); Fukayama, S., et al., Endocrinology 134:1851-1858 (1994)); both cell lines were maintained in a humidified atmosphere containing 95% air and 5% CO2. After seeding, medium was replaced daily, until cells were used for radioligand binding or cAMP accumulation assays.
(§2) Na^125I (specific activity: 2,000 Ci/mmol) was purchased from DuPont/NEN, Boston, Mass. Fetal bovine serum, 3-isobutyl-1-methyl-xanthine (IBMX), and BSA were from Sigma, St. Louis, Mo., and trifluoroacetic acid (TFA) was from Pierce, Rockford, Ill. Radiolabeled rPTH(1-34) and PTHrP(1-36) were prepared by the chloramine-T method, followed by HPLC purification using a 30-50% ACN/0.1% TFA gradient over 30 minutes; radioreceptor assays were performed in 24-well plates as previously described (Gardella, T. J., et al., J. Biol. Chem. 271:19888-19893 (1996); Fukayama, S. et al., Endocrinology 134:1851-1858 (1994)). In brief, each well (final volume 500 μl) contained binding buffer (BB; 50 mM Tris-HCl (pH 7.7), 100 mM NaCl, 5 mM KCl, 2 mM CaCl2, 5% heat-inactivated horse serum, and 0.5% heat-inactivated fetal bovine serum), the ^125I-labeled PTH or PTHrP analog (100,000 to 200,000 cpm) was incubated in the absence or presence of increasing concentrations of unlabeled peptides. After 4 h at 16° C., buffer was completely removed, the cells were rinsed with cold BB and lysed with 1 M NaOH. The entire lysate was counted for γ-irradiation. Specific binding was determined after subtracting radioactivity bound in the presence of maximal concentrations of unlabeled competing peptide (10^−6 M). Agonist-dependent stimulation of cAMP accumulation by HKrk-B7 and SaOS-2 cells (48-well plates; stimulation at room temperature for 45 minutes) and the subsequent measurement of cAMP by radioimmunoassay was performed as previously described (Gardella, T. J., et al., J. Biol. Chem. 271:19888-19893 (1996); Bergwitz, C., et al., Endocrinology 139:723-732 (1998)). Data were analyzed and graphically illustrated using the graph-pad prism software package.
The binding properties of these peptides were evaluated in radioreceptor assays with HKrk-B7 cells, which express the PTH IR at high density (approximately […]) (Carter, P. H., et al., Endocrinology 140:4972-4981 (1999)), using either radiolabeled rPTH(1-34) or PTHrP(1-36).
The calculated IC50 values (mean±SE) are derived from at least three independent experiments.

In experiment [2] the target is T1, PTH1R. Kind of experiment: Ligand-stimulated cAMP accumulation in HKrk-B7 cells. It counts as cell-based. Further details: expressed in transfected cells. As for the experimental part:
as §1, §2
The values for EC50 and Vmax (mean±SE) are derived from at least three independent experiments.
(Cyclic AMP is a second messenger, typically raised through Gs and lowered through Gi signalling.)

A further experiment addresses T2, endogenous PTH1R (Homo sapiens, UniProt Q03431).
T2 construct: SaOS-2 cells expressing the wild-type PTH1R endogenously; endogenous in cells; host or cells: SaOS-2 human osteosarcoma cells
T2 sequence (Q03431 27-593): T1 sequence (Q03431 27-593)
The experiment in a line: Ligand-stimulated cAMP accumulation in SaOS-2 cells. It counts as cell-based. The method, then: as §1
as §2, with “After 4 h at 16° C., buffer was completely removed, the cells were rinsed with cold BB and lysed with 1 M NaOH.” left out, “Agonist-dependent stimulation of cAMP accumulation by HKrk-B7 and SaOS-2 cells (48-well plates; stimulation at room temperature for 45 minutes) and the subsequent measurement of cAMP by radioimmunoassay was performed as previously described (Gardella, T. J., et al., J. Biol. Chem. 271:19888-19893 (1996); Bergwitz, C., et al., Endocrinology 139:723-732 (1998)).” left out, “package. […]” for “package.”

The target of experiment [3] is T3, human PTH/PTHrP receptor (PTH1R) (human, UniProt Q03431 27-593).
T3 construct: whole, on cells; HKrk-B7 cells about 10^6 receptors/cell; SaOS-2 about 30,000 receptors/cell; also called hPTH-1 receptor; PTH-1 receptor
T3 sequence (looked up): T1 sequence (Q03431 27-593)
Kind of experiment: radioreceptor competition on HKrk-B7 cells; tracer 125I-rat [Nle8,21,Tyr34]PTH(1-34)amide. The method, then:
(§3) Na¹²⁵I (specific activity: 2,000 Ci/mmol) was purchased from DuPont/NEN, Boston, Mass. Fetal bovine serum, 3-isobutyl-1-methyl-xanthine (IBMX), and BSA were from Sigma, St. Louis, Mo., and trifluoroacetic acid (TFA) was from Pierce, Rockford, Ill. […] After 4 h at 16° C., buffer was completely removed, the cells were rinsed with cold BB and lysed with 1 M NaOH. The entire lysate was counted for γ-irradiation. Specific binding was determined after subtracting radioactivity bound in the presence of maximal concentrations of unlabeled competing peptide (10⁻⁶ M). Agonist-dependent stimulation of cAMP accumulation by HKrk-B7 and SaOS-2 cells (48-well plates; stimulation at room temperature for 45 minutes) and the subsequent measurement of cAMP by radioimmunoassay was performed as previously described (Gardella, T. J., et al., J. Biol. Chem. 271:19888-19893 (1996); Bergwitz, C., et al., Endocrinology 139:723-732 (1998)). Data were analyzed and graphically illustrated using the graph-pad prism software package.

The target of experiment [4] is T3, human PTH/PTHrP receptor (PTH1R). Kind of experiment: radioreceptor competition on HKrk-B7 cells; tracer 125I-[Tyr36]PTHrP(1-36)amide. The method, then: as §3
Experiment [5] shares this target. The experiment in a line: cell-based or functional assay.
Setting [6] is: maximal cAMP accumulation, mean±SE.

As for `CC[C@H](C)[C@H](NC(=O)[C@H](CO)NC(=O)[C@H](CCCCN)NC(=O)CNC(=O)[C@H](CCCCN)NC(=O)[C@H](CC(=O)O)NC(=O)[C@H](Cc1c[nH]cn1)NC(=O)[C@H](CC(C)C)NC(=O)[C@H](CC(C)C)NC(=O)[C@H](CCC(N)=O)NC(=O)[C@H](Cc1c[nH]cn1)NC(=O)[C@H](CCC(=O)O)NC(=O)[C@H](CO)NC(=O)[C@@H](NC(=O)[C@H](C)N)C(C)C)C(=O)N[C@@H](CCC(N)=O)C(=O)N[C@@H](CC(=O)O)C(=O)N[C@@H](CC(C)C)C(=O)N[C@@H](CCCNC(=N)N)C(=O)N[C@@H](CCCNC(=N)N)C(=O)N[C@@H](CCCNC(=N)N)C(=O)N[C@@H](Cc1c[nH]cn1)C(=O)N[C@@H](Cc1c[nH]c2ccccc12)C(=O)N[C@@H](CC(C)C)C(=O)N[C@@H](CC(N)=O)C(=O)N[C@@H](CO)C(=O)N[C@@H](Cc1ccc(O)cc1)C(=O)N[C@@H](CCSC)C(=O)N[C@@H](Cc1c[nH]cn1)C(=O)N[C@@H](CCCCN)C(=O)N[C@@H](CC(C)C)C(=O)N[C@@H](CC(C)C)C(=O)N[C@H](C(=O)N[C@@H](CC(C)C)C(=O)N[C@@H](CC(=O)O)C(=O)N[C@@H](C)C(=O)N1CCC[C@H]1C(N)=O)C(C)C` [PTHrP(1-20)/TIP(23-39)] (H-AVSEHQLLHDKGKSIQDLRRRHWLNSYMHKLLVLDAP-NH2), at PTH1R [1], the “binding affinity higher than that of PTHrP(1-36)” value is listed as 2- to 4 fold and the “binding affinity weaker than that of PTH(1-34)” value is reported as 3- to 4 fold. Further, the “improvement in apparent binding affinity (IC50) relative to TIP(1-39)” value at PTH1R [1] (either radioligand) is recorded as 8- to 19 fold. Also, at PTH1R [2] (HKrk-B7 cells), the “Vmax (efficacy) of cAMP accumulation” value came out at 39±8 pmol/well; the “stimulation of cAMP accumulation at the PTH1R (in words)” value (from here on “stimulation of cAMP accumulation”) is “full and potent agonist”. The “HKrk-B7 Maxobs” value at PTH1R [2] (setting [6]) is recorded as 39 ± 8 pmol/48-well. The “Vmax (efficacy) of cAMP accumulation” value at endogenous PTH1R (SaOS-2 cells) is 31±3 pmol/well. In addition, the “SaOS-2 Maxobs” value at endogenous PTH1R (setting [6]) worked out at 31 ± 3 pmol/48-well.
For the molecule `CSCC[C@H](NC(=O)[C@H](Cc1ccc(O)cc1)NC(=O)[C@H](CO)NC(=O)[C@H](CC(N)=O)NC(=O)[C@H](CC(C)C)NC(=O)[C@H](Cc1c[nH]c2ccccc12)NC(=O)[C@H](Cc1c[nH]cn1)NC(=O)[C@H](CCCNC(=N)N)NC(=O)[C@H](CCCNC(=N)N)NC(=O)[C@H](CCC(=O)O)NC(=O)[C@H](CC(C)C)NC(=O)[C@H](C)NC(=O)[C@H](C)NC(=O)[C@H](CC(C)C)NC(=O)[C@H](CC(C)C)NC(=O)[C@H](CCCNC(=N)N)NC(=O)[C@H](C)NC(=O)[C@H](CCCNC(=N)N)NC(=O)[C@H](CCC(=O)O)NC(=O)[C@H](CCCNC(=N)N)NC(=O)[C@H](Cc1ccccc1)NC(=O)[C@H](C)NC(=O)[C@H](C)NC(=O)[C@H](CC(=O)O)NC(=O)[C@H](CC(=O)O)NC(=O)[C@H](C)NC(=O)[C@H](CC(C)C)NC(=O)[C@H](C)N)C(=O)N[C@@H](Cc1c[nH]cn1)C(=O)N[C@@H](CCCCN)C(=O)N[C@@H](CC(C)C)C(=O)N[C@@H](CC(C)C)C(=O)N[C@H](C(=O)N[C@@H](CC(C)C)C(=O)N[C@@H](CC(=O)O)C(=O)N[C@@H](C)C(=O)N1CCC[C@H]1C(N)=O)C(C)C` [TIP(3-39)] (H-ALADDAAFRERARLLAALERRHWLNSYMHKLLVLDAP-NH2), on PTH1R [2] (HKrk-B7 cells), the “stimulation of cAMP accumulation” value is on record as “lack of second messenger formation; also recorded: failed to stimulate cAMP accumulation”.
Take “PTHrP(1-6)/TIP(9-39): chimera of human PTHrP residues 1-6 and bovine TIP residues 9-39”: the “stimulation of cAMP accumulation” value in the experiment with PTH1R [2] (HKrk-B7 cells) is “None of these peptides, however, stimulated cAMP formation; also recorded: lack of PTH1R activation”.
On to “PTHrP(1-20)amide (AVSEHQLLHDKGKSIQDLRR-NH2) [reference compound]”, for which the “inhibition of radioligand binding to the PTH1R (in words)” value (shortened to “inhibition of radioligand binding”) in the experiment with PTH1R [1] (either radioligand) was “did not inhibit the binding of either radioligand”.
Turning to “TIP(19-39): TIP39 analog truncated at the amino-terminus, residues 19-39, bovine sequence (ALERRHWLNSYMHKLLVLDAP)”, in the experiment with PTH1R [1] (either radioligand), the “inhibition of radioligand binding” value was “did not inhibit the binding of either radioligand; also recorded: no detectable binding”. The “stimulation of cAMP accumulation” value with PTH1R [2] (HKrk-B7 cells) was “lack of second messenger formation”.
Turning to “TIP(23-39): TIP39 analog truncated at the amino-terminus, residues 23-39, bovine sequence (RHWLNSYMHKLLVLDAP)”, the “inhibition of radioligand binding” value in the experiment with PTH1R [1] (either radioligand) is recorded as “did not inhibit the binding of either radioligand; also recorded: no detectable binding”. In the experiment with PTH1R [2] (HKrk-B7 cells, high molar concentrations), the “increase in cAMP accumulation over basal” value is recorded as about 2 fold over basal.
For the molecule “[Ile^7]TIP(1-39): TIP(1-39) having Asp7 replaced by the corresponding isoleucine of PTH (SLALADIAAFRERARLLAALERRHWLNSYMHKLLVLDAP)”, the “stimulation of cAMP accumulation” value with PTH1R [2] (HKrk-B7 cells) is given as “None of these peptides, however, stimulated cAMP formation; also recorded: no activation of the PTH1R”.

B1: PTHrP(1-20)/TIP(23-39) (peptide)
peptide: H-AVSEHQLLHDKGKSIQDLRRRHWLNSYMHKLLVLDAP-NH2
notes: also called PTHrP/TIP chimera
Regarding B1, the IC50 in experiment [3] was 31 nM; in experiment [4], 11 nM. The “EC50 of cAMP accumulation, HKrk-B7 cells” value in experiment [5] was 1.4 nM. In experiment [5], the “EC50 of cAMP accumulation, SaOS-2 cells” value turned out to be 0.38 nM.

B2: [Tyr^34] human PTH(1-34)amide (peptide)
chain: SVSEIQLMHNLGKHLNSMERVEWLRKKLQDVHNY
modifications: not fully specified (C-terminus)
For the molecule B2, the “EC50 of cAMP accumulation, SaOS-2 cells” value in experiment [5] came to 0.3 nM.
